Results on 8 molecules are retold here after article PMC3956856, “Interaction of Kinase-Interaction-Motif Protein Tyrosine Phosphatases with the Mitogen-Activated Protein Kinase ERK2” (PLoS ONE, 2014).

As usually defined, the Kd is the constant that tells how readily two partners part at equilibrium.

Experiment [1] concerns the target p38α. The note with it: ref [14], cited from earlier work; for Kd: values previously published, [15], [17], [18]. The text has this: We used ITC measurements to determine the binding affinity of STEP and PTPSL for unphosphorylated ERK2 ( Table 1; Figure S1). […] This complex has a ∼3-times lower Kd (tighter binding) than the next tightest complex, ERK2:PTPSL, and a nearly 70-fold greater affinity than the weakest complex, p38α:HePTP [15]. Like STEP, PTPSL binds ERK2 more tightly (∼3.5-fold) than p38α. We also tested peptides that include the kinase specificity s ... || We also generated a chimeric protein in which we fused the PTPSLKIMKIS to STEPCAT (PSchimera; Figure 1A ). […] Thus, they only adopt a single conformation when they bind their respective MAPKs. This is different from the MAPK-binding domains (MKBD) of MAPK phosphatases (MKP; dual specificity phosphatases; DUSPs), [26]. In MKPs, the KIM sequence is part of a stable, folded domain and thus adopts a single, ordered conformation in both the unbound and MAPK-bound states, [28]. […] Our ... || (+ 1 further places)

In experiment [2] the target is T1, ERK2 (Rattus norvegicus, UniProt P63086).
T1 construct: gene Mapk1; made in house
The settings on record: [17], cited from earlier work; for Kd: ERK2, values previously published, ref [14], [15], [18]; for tighter binding to ERK2 than to p38α: HePTP residues 15–339 and HePTP KIM-peptide residues 15–31, ref [16]. An excerpt: Over the last years different groups, including ours, have studied the interaction of MAPK regulatory proteins, as well as substrates, with different MAPKs, especially ERK2, p38 and JNK [12]–[17]. However, while a plethora of cell biological data is available, much less systematic interaction data using quantitative methods, such as isothermal titration calorimetry (ITC), has been reported. This is of special interest, as recent studies have shown that while KIM-peptides derived from KIM-containing regulatory proteins and substrates readily discriminate between ERK2/p38 and JNK, they discr ... || We used ITC measurements to determine the binding affinity of STEP and PTPSL for unphosphorylated ERK2 ( Table 1; Figure S1). […] This complex has a ∼3-times lower Kd (tighter binding) than the next tightest complex, ERK2:PTPSL, and a nearly 70-fold greater affinity than the weakest complex, p38α:HePTP [15]. Like STEP, PTPSL binds ERK2 more tightly (∼3.5-fold) than p38α. We also tested peptides that include the kinase specificity s ... || Figure 3 Regulatory protein-MAPK interaction strengths. The binding strengths of each KIM-PTP (KIM peptides and KIM-containing MKBDs (in orange font), light blue; KIMKIS peptides, light purple; proteins, light pink) to p38α and ERK2 represented from weakest to tightest (largest Kd to smallest Kd) binding affinity; ‘^†’ indicates values previously published, [15], [17], [18]. KIM-PTP:MAPK complexes determined to be extended using SAXS written in normal text; KIM-PTP:MAPK complexes determined to be compact written in italics; *, compact nature of the ERK2-PTPSL complex determined by ...

For experiment [3], the target named is T1, ERK2. Kind of experiment: Isothermal titration calorimetry with ERK2. The experiment is classed as binding. The method, then:
The PTPSLKIM peptide (residues 331–348), STEPKIM (residues 213–229) and STEPKIMKIS (residues 213–256) were synthesized, HPLC purified and verified by mass spectrometry (MS) (>98% purity; Biosynthesis, Inc.). Expression and purification of ERK2 and PTPSLKIMKIS (residues 332–373) was carried out as previously described, [15]. PTPSL (residues 332–655, human), STEP (residues 213–539, mouse) and PSChimera (PTPSL residues 332–373 with STEP residues 257–539; gene synthesized by DNA 2.0) were expressed and purified using the protocol previously described in detail for STEPCAT (residues 244–539). The DUSP16 MAPK binding domain (residues 5–138, human) was expressed and purified as previously described. All purified proteins were stored at −80 °C until use at which point they were thawed and exchanged into the appropriate buffer using size exclusion chromatography (SEC; Superdex 75 26/60; GE Healthcare). The final protein buffer was dependent on the experiment performed. For ITC experiments, the final SEC purification was performed in ITC buffer (10 mM Tris pH 7.5, 150 mM NaCl, 0.1 mM EDTA, 0.5 mM TCEP); for SAXS experiments, the final SEC purification was performed in SAXS buffer (50 mM HEPES pH 6.8, 150 mM NaCl, 5 mM dithiothreitol). PTPSLKIM, STEPKIM and STEPKIMKIS peptides were solubilized in ITC buffer prior to ITC measurements.
ITC experiments were performed at 25 °C using a VP-ITC microcalorimeter (Microcal Inc.). Titrant (10 μL per injection) was injected into the sample cell over a period of 20 seconds with a 250 second interval between titrations to allow for complete equilibration and baseline recovery. 28 injections were delivered during each experiment and the solution in the sample cell was stirred at 307 rpm to ensure rapid mixing. To determine the thermodynamic parameters (ΔH, ΔS, ΔG) and binding constants (K) of the ERK2:PTPSLKIM, ERK2:PTPSL, ERK2:STEP and ERK2:PSChimera interactions, PTPSLKIM, PTPSL, STEP and PSChimera were titrated into ERK2. To determine the same parameters for the ERK2:STEPKIM, ERK2:PTPSLKIMKIS and ERK2:STEPKIMKIS interaction, ERK2 was titrated into the peptides. Titrants were chosen based on the amount of purified protein/peptide available for the experiment. For all titrations the concentrations were slightly varied to ensure independence of the Kd from the protein/peptide concentrations. Data were analyzed with a one-site binding model assuming a binding stoichiometry of 1∶1 using Origin 7.0 software. A nonlinear least-squares algorithm and the titrant and sample cell concentrations were used to fit the heat flow per injection to an equilibrium binding equation, providing values of the stoichiometry (n), change in enthalpy (ΔH) and binding constant (K). All data were repeated in triplicate.
(In ITC the heat of successive injections is recorded.)

For experiment [4], the target named is T2, extracellular signal-regulated kinase 2 (ERK2), unphosphorylated (UniProt P63086 1-358).
T2 construct: ERK2 (extracellular signal-regulated kinase 2), unphosphorylated; also called MAPK; source: final SEC (Superdex 75 26/60)
Put plainly: ITC; ERK2 titrated into STEPKIM, PTPSL KIMKIS or STEP KIMKIS in the cell; 25 °C; 10 mM Tris pH 7.5, 150 mM NaCl, 0.1 mM EDTA, 0.5 mM TCEP; one-site model; triplicate. The note with it: both partners purified.

Experiment [5] concerns the target T1, ERK2. The settings on record: ref [16], cited from earlier work.
For experiment [6], the target named is T2, extracellular signal-regulated kinase 2 …. Put plainly: ITC; PTPSLKIM, PTPSL, STEP or PSChimera titrated into ERK2 in the cell; 25 °C; 10 mM Tris pH 7.5, 150 mM NaCl, 0.1 mM EDTA, 0.5 mM TCEP; one-site model; triplicate. The note with it: both partners purified.
Setting [7] is: ERK2:HePTP resting-state complex.

“HePTPKIM: HePTP KIM-peptide (residues 15–31) (TLSLGAAMTQPPPEKTP; KIM peptide; UniProt P35236 15-31, looked up, fragment) [reference compound]”: the Kd is 5150 ± 1290 nM in experiment [1] and 1280 ± 110 nM in experiment [2]. In addition, the “tighter binding to ERK2 than to p38α” value in experiment [2] is given as ~4 times. The “differences in affinity of KIM peptides for ERK2 versus p38α” value in experiment [3] (KIM peptides of the KIM-PTPs) stood at 4.0.

Consider “HePTPKIMKIS: HePTP KIMKIS peptide, values previously published (VRLQERRGSNVALMLDVRSLGAVEPICSVNTPREVTLHFLRT)”, for which, in experiment [2], the Kd is 679 ± 122 nM.

B1: STEPKIM peptide (STEP residues 213-229) (peptide, UniProt P54830 213-229, looked up)
peptide: MGLQERRGSNVSLTLDM
notes: STEP (PTPN5, striatal enriched protein tyrosine phosphatase), residues 213-229 (KIM); mouse is stated for the STEP 213-539 construct; source: synthetic peptide (Biosynthesis, Inc.), HPLC purified, >98% purity
In turn, B1 had a Kd in experiment [4] of 546 nM.

B2: PTPSL KIMKIS (PTPSL residues 332-373) (peptide, UniProt Q15256 332-373, looked up)
chain: GLQERRGSNVSLTLDMSSLGNIEPFVSIPTPREKVAMEYLQS
notes: PTPSL/PTPBR7 (PTPRR), residues 332-373 (KIM and KIS); human is stated for the PTPSL 332-655 construct; Recombinant, not synthetic; source: final SEC
Take B2: in experiment [4], the Kd was 825 nM.

B3: HePTP: HePTP (residues 15–339), hematopoietic protein tyrosine phosphatase (protein, UniProt P35236 15-339, looked up, fragment)
chain: TLSLGAAMTQPPPEKTPAKKHVRLQERRGSNVALMLDVRSLGAVEPICSVNTPREVTLHFLRTAGHPLTRWALQRQPPSPKQLEEEFLKIPSNFVSPEDLDIPGHASKDRYKTILPNPQSRVCLGRAQSQEDGDYINANYIRGYDGKEKVYIATQGPMPNTVSDFWEMVWQEEVSLIVMLTQLREGKEKCVHYWPTEEETYGPFQIRIQDMKECPEYTVRQLTIQYQEERRSVKHILFSAWPDHQTPESAGPLLRLVAEVEESPETAAHPGPIVVHCSAGIGRTGCFIATRIGCQQLKARGEVDILGIVCQLRLDRGGMIQTAEQ
Take B3: the Kd in experiment [1] is 2570 ± 650 nM. Also, in experiment [2], the Kd is 371 ± 40 nM and the “tighter binding to ERK2 than to p38α” value is ~7 times. Further, in experiment [5] (setting [7]), the “maximum dimension (Dmax)” value is reported as 110 Å and the “radius of gyration (Rg)” value is listed as 33.3 Å. In experiment [5] (resting-state complex, SAXS), the “shape of the complex with ERK2 (in words)” value is listed as “highly extended in solution”.

B4: STEP KIMKIS peptide (STEP residues 213-256) (peptide, UniProt P54830 213-256, looked up)
peptide: MGLQERRGSNVSLTLDMCTPGCNEEGFGYLVSPREESAHEYLLS
notes: STEP (PTPN5), residues 213-256 (KIM and KIS); mouse is stated for the STEP 213-539 construct; source: synthetic peptide (Biosynthesis, Inc.), HPLC purified, >98% purity
The molecule B4 had an equilibrium dissociation constant (Kd) in experiment [4] of 123 nM.

B5: PTPSLKIM peptide (PTPSL residues 331-348) (peptide, UniProt Q15256 331-348, looked up)
peptide: IGLQERRGSNVSLTLDMS
notes: PTPSL/PTPBR7 (PTPRR, PTP STEP-like), residues 331-348 (KIM); human is stated for the PTPSL 332-655 construct; source: synthetic peptide (Biosynthesis, Inc.), HPLC purified, >98% purity
In the case of B5, in experiment [6], the dissociation constant Kd amounted to 463 nM and the dH is -23.5 kcal/mol.

B6: PS_(Chimera) (PTPSL residues 332-373 with STEP residues 257-539) (other, human | mouse, UniProt Q15256 332-373, looked up)
chain: GLQERRGSNVSLTLDMSSLGNIEPFVSIPTPREKVAMEYLQSASRVLRAEELHEKALDPFLLQAEFFEIPMNFVDPKEYDIPGLVRKNRYKTILPNPHSRVRLTSPDPEDPLSSYINANYIRGYSGEEKVYIATQGPIVSTVADFWRMVWQERTPIIVMITNIEEMNEKCTEYWPEEQVVHDGVEITVQKVIHTEDYRLRLISLRRGTEERSLKHYWFTSWPDQKTPDRAPPLLHLVREVEEAAQQEGPHCSPIIVHCSAGIGRTGCFIATSICCQQLRREGVVDILKTTCQLRQDRGGMIQTCEQYQFVHHAMSLYEKQLSLQS
notes: PTPSL (PTPRR), residues 332-373 (KIM and KIS); human is stated for the PTPSL 332-655 construct; STEP (PTPN5), residues 257-539 (catalytic domain); mouse is stated for the STEP 213-539 construct; Chimera of PTPSL KIMKIS fused to STEPCAT; source: gene synthesized by DNA 2.0; final SEC
B6: in experiment [6], binding was characterised by a dissociation constant (Kd) of 47 nM and the dH was -18.5 kcal/mol. Moreover, the “relative binding to p38α (in words)” value in experiment [1] is reported as “binds marginally more tightly to p38α than any of the WT-KIM-PTPs”. For the same molecule, the “relative binding to ERK2 (in words)” value in experiment [3] (ERK2, ITC) is given as “binds to ERK2 with about equal binding strength as STEP”. Moreover, in experiment [3] (unphosphorylated ERK2, ITC, 25 °C, 10 mM Tris pH 7.5, 150 mM NaCl, 0.1 mM EDTA, 0.5 mM TCEP, average and standard deviation, triplicate), the TΔS was -8.5 ± 0.7 kcal/mol.
